Measurements reported in publication PMC6321396.

How the values were obtained:
[1] = target: ApHt_20, IsCT-like antimicrobial venom peptide from Mesobuthus martensii Karsch (Mesobuthus martensii Karsch)
[2] = target: ApHt_20, IsCT-like antimicrobial venom peptide from Mesobuthus martensii Karsch (Mesobuthus martensii Karsch); remark: listed apart in the source

**Q.** Which results are given for “HAP-1, short-chain highly acidic peptide from Mesobuthus martensii Karsch”?
**A.** MIC of ApHt 20 against Staphylococcus aureus AB94004 in the presence of 32 μM HAP-1 (8 μM without HAP-1) [1]: 16 µM; agar diffusion assay against Staphylococcus aureus AB94004: minimum concentration of HAP-1 required to completely inhibit the inhibition zone made by 40 nM ApHt 20 [2]: 140 nM
